This is an account of results in paper PMC4831847.

The subject of the data set is hPBV RdRP WT (human picobirnavirus strain Hy005102). The data set can be described thus: EMSA. Particulars: 50 mM Tris-HCl pH 7.5, 50 mM KCl, 1 mM NaN3, 5 mM beta-mercaptoethanol, 10% glycerol, 1 nM 32P-RNA, 30 min at room temperature, 15% native PAGE in ice bath.

Substance PBV2+ full-length registered a binding signal (fold stronger than PBV2+(Δ1-645)) of 10.
On to PBV2+(Δ1-645), for which the binding signal (fold weaker than full-length PBV2+) amounted to 10.
Where the note is “scale: fold higher affinity than 3'-(+)UTR or CA repeat”, GUAAAAUUUUCGAAUUUUAU [PBV 5'-(+)UTR] had a binding signal of 10.
For the substance GGACUAACAGUCCCAACUGC [PBV 3'-(+)UTR], the binding signal (fold lower affinity than 5'-(+)UTR) was 10.
CACACACACACACACACACA [CA repeat 20-mer] returned a binding signal (fold lower affinity than 5'-(+)UTR) of 10.
